The target in experiment [1] is PAM_(NS88.2), plasminogen-binding Group A streptococcal M-protein from GAS isolate NS88.2 (Streptococcus pyogenes (GAS isolate NS88.2)). The experiment in a line: AUC; apo-PAM_(NS88.2), sedimentation equilibrium at two rotor speeds (<0.2 mg/ml) and sedimentation velocity (6 µM); 50 mM sodium phosphate/100 mM NaCl, pH 7.4; 4°C, 15°C and 25°C.
Experiment [2] shares this target. The experiment in a line: ITC; K2hPg (syringe) titrated into PAM_(NS88.2) (6 µM as monomer, cell); 50 mM sodium phosphate/100 mM NaCl, pH 7.4; 4°C; hetero-association model of K2hPg and PAM monomer (Sedphat).
The target of experiment [3] is AGL55, 55-mer A-domain peptide of PAM_(NS88.2) (Streptococcus pyogenes (GAS isolate NS88.2)). The experiment in a line: ITC; K2hPg (syringe) titrated into AGL55 (30 µM, cell); 50 mM sodium phosphate/100 mM NaCl, pH 7.4; 37°C; hetero-association model A + B (Sedphat). Background: In ITC the heat of successive injections is recorded.
The target is the same in experiment [4]. The experiment in a line: SEC-MALS; K2hPg/AGL55 mixture on a Wyatt 030S5 column, UV, RI and MALS detection, protein conjugate analysis; 50 mM Na-phosphate/100 mM NaCl, pH 7.4; 25°C. For orientation: SEC sorts molecules by how far they enter the pores of the column.
For experiment [5] the target is unchanged. The experiment in a line: ITC; K2hPg (syringe) titrated into AGL55 (30 µM, cell); 50 mM sodium phosphate/100 mM NaCl, pH 7.4; 25°C; hetero-association model A + B (Sedphat).
For experiment [6] the target is unchanged. The experiment in a line: ITC; K2hPg (syringe) titrated into AGL55 (30 µM, cell); 50 mM sodium phosphate/100 mM NaCl, pH 7.4; 4°C; hetero-association model A + B (Sedphat).
Experiment [7] concerns the target PAM_(NS88.2), plasminogen-binding Group A streptococcal M-protein from GAS isolate NS88.2 (Streptococcus pyogenes (GAS isolate NS88.2)). The experiment in a line: ITC; K2hPg (syringe) titrated into PAM_(NS88.2) (6 µM as monomer, cell); 50 mM sodium phosphate/100 mM NaCl, pH 7.4; 37°C; hetero-association model (Sedphat).
Experiment [8] shares this target. The experiment in a line: ITC; K2hPg (syringe) titrated into PAM_(NS88.2) (6 µM as monomer, cell); 50 mM sodium phosphate/100 mM NaCl, pH 7.4; 25°C; only the final inflection fitted, hetero-association model A + B (Sedphat).
Experiment [9] has the same target. The experiment in a line: AUC; sedimentation equilibrium of the K2hPg/PAM_(NS88.2) complex isolated by gel filtration, at the temperature of its isolation (4°C, 25°C, 37°C); 50 mM sodium phosphate/100 mM NaCl, pH 7.4.

By stoichiometry N is commonly meant a count of units in the complex or per binding partner. For orientation: Kd means the free concentration of one partner at which half of the binding sites on the other are occupied at equilibrium, for simple one-to-one binding.

As to “PAM_(NS88.2), plasminogen-binding Group A streptococcal M-protein from GAS isolate NS88.2 (natural protein)”, in experiment [1], the stoichiometry N is 2.

For the substance “K2hPg, kringle-2 domain of human plasminogen (from UniProt P00747 183-262) (domain or fragment)”, the dissociation constant (Kd) in [2] is 0.7 nM; in [7], 181 nM; in experiment [8], 2.7 nM. The dH in experiment [2] is -13.7 kcal/mol; in [7], -37 kcal/mol. The stoichiometry N in [3], in experiment [4], in experiment [5], in experiment [6] and in [9] was 1 m:m throughout.

These data come from paper PMC8633249.
